According to the supplement of paper PMC10126150:
± gives the standard deviation of the averaged measurements.

Test system: ATP
Experiment: switch fluorescence ratio, 500 uM ATP over buffer (Cy3 cluster intensity, sum of 5 cycles each) (fold (ratio)); higher = stronger signal-on switching upon ATP binding; sequences stand for … in TCGTCGGCAGCGTCAGATGTGTATAAGAGACAGTTTTTTTTTTTTTTTTTTTTTTTTT…TC
Conditions: aptamer strand: ATP DNA aptamer (quencher-CACCTGGGGGAGTATTGCGGAGGAAGG + anchor), 100 nM annealed; ATP concentration: 500 uM
In short: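 Per cluster, summed Cy3 intensity from the target cycles was divided by that from the buffer cycles to give the fluorescence ratio, then averaged per switch-domain sequence. Clusters outside 100-1000 RFU were excluded. The Cy3-labelled switching-strand clusters, on a modified Illumina MiSeq flow-cell, were annealed to 100 nM quencher-labelled ATP aptamer and imaged in selection buffer, then after 15 min with 500 uM ATP at 22 °C, for five cycles with NaOH stripping and re-annealing between them.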
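Also: ATP exposure 15 min at 22 °C before imaging.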

AAGGGGAATG
switch fluorescence ratio: 1.02 ± 0.056

AAGGGGACAG
switch fluorescence ratio: 0.995 ± 0.03

AAGGGGAGAA
switch fluorescence ratio: 0.9872 ± 0.008

AAGGGGCGT
switch fluorescence ratio: 0.9961 ± 0.0036

AAGGGGGCAT
switch fluorescence ratio: 0.979 ± 0.033

AAGGGGGCCT
switch fluorescence ratio: 1 ± 0.024

AAGGGGGGA
switch fluorescence ratio: 1.01 ± 0.072

AAGGGGGTTA
switch fluorescence ratio: 0.991 ± 0.025

AAGGGGTTCG
switch fluorescence ratio: 1.05 ± 0.023

AAGGGGTTCT
switch fluorescence ratio: 1.01 ± 0.016

AAGGGTATAT
switch fluorescence ratio: 0.9834 ± 0.0063

AAGGGTATTG
switch fluorescence ratio: 0.995 ± 0.024

AAGGGTCAAA
switch fluorescence ratio: 0.985 ± 0.048

AAGGGTCAGC
switch fluorescence ratio: 0.9917 ± 0.0081

AAGGGTCTCG
switch fluorescence ratio: 1.03 ± 0.095

AAGGGTGGGA
switch fluorescence ratio: 1.01 ± 0.039

AAGGGTGGGG
switch fluorescence ratio: 1 ± 0.058

AAGGGTTAT
switch fluorescence ratio: 0.995 ± 0.017

AAGGGTTTAA
switch fluorescence ratio: 0.98 ± 0.018

AAGGTAGTGG
switch fluorescence ratio: 0.962 ± 0.017

AAGGTCAAGC
switch fluorescence ratio: 1 ± 0.063

AAGGTCCATG
switch fluorescence ratio: 0.9631 ± 0.0013

AAGGTCGGGA
switch fluorescence ratio: 0.9966 ± 0.0087

AAGGTCTTAG
switch fluorescence ratio: 0.968 ± 0.039

AAGGTGAAGA
switch fluorescence ratio: 1.04 ± 0.029

AAGGTGATAG
switch fluorescence ratio: 1 ± 0.019

AAGGTGCGGG
switch fluorescence ratio: 0.999 ± 0.023

AAGGTGCTGC
switch fluorescence ratio: 1.035 ± 0.0022

AAGGTGGGCC
switch fluorescence ratio: 0.985 ± 0.019

AAGGTGGGTT
switch fluorescence ratio: 1.01 ± 0.059

AAGGTTACCG
switch fluorescence ratio: 1.04 ± 0.021

AAGGTTAGAC
switch fluorescence ratio: 1.03 ± 0.012

AAGGTTATGC
switch fluorescence ratio: 0.987 ± 0.039

AAGGTTCTGA
switch fluorescence ratio: 0.981 ± 0.016

AAGGTTCTGG
switch fluorescence ratio: 0.9883 ± 0.0083

AAGGTTGTTT
switch fluorescence ratio: 0.983 ± 0.03

AAGTAAACAT
switch fluorescence ratio: 1.06 ± 0.036

AAGTAACTC
switch fluorescence ratio: 1.03 ± 0.027

AAGTAAGGGC
switch fluorescence ratio: 1.02 ± 0.031

AAGTACGTAG
switch fluorescence ratio: 1.011 ± 0.0065

AAGTACGTTC
switch fluorescence ratio: 1.25 ± 0.035

AAGTACTTTA
switch fluorescence ratio: 1.14 ± 0.013

AAGTACTTTT
switch fluorescence ratio: 1.2 ± 0.055

AAGTAGGCAC
switch fluorescence ratio: 1.022 ± 0.0018

AAGTAGTCCC
switch fluorescence ratio: 1.3 ± 0.39

AAGTATGGGT
switch fluorescence ratio: 0.998 ± 0.028

AAGTATGGTA
switch fluorescence ratio: 0.965 ± 0.075

AAGTCCAAGA
switch fluorescence ratio: 1.01 ± 0.033

AAGTCCCAGC
switch fluorescence ratio: 0.995 ± 0.048

AAGTCCCTTC
switch fluorescence ratio: 1.01 ± 0.035

AAGTCCGGGG
switch fluorescence ratio: 0.9698 ± 0.0013

AAGTCGAAGT
switch fluorescence ratio: 0.98568 ± 0.00082

AAGTCGACAC
switch fluorescence ratio: 1.02 ± 0.032

AAGTCGACGT
switch fluorescence ratio: 1.03 ± 0.041

AAGTCGATTG
switch fluorescence ratio: 0.99 ± 0.017

AAGTCGTCCG
switch fluorescence ratio: 0.985 ± 0.044

AAGTGAAACA
switch fluorescence ratio: 1.03 ± 0.037

AAGTGCATGC
switch fluorescence ratio: 1.01 ± 0.11

AAGTGCTTGA
switch fluorescence ratio: 1 ± 0.069

AAGTGGAGGC
switch fluorescence ratio: 1.04 ± 0.0072

AAGTGGAGTG
switch fluorescence ratio: 0.999 ± 0.041

AAGTGGCTGT
switch fluorescence ratio: 0.941 ± 0.027

AAGTGGGACC
switch fluorescence ratio: 1.02 ± 0.025

AAGTGGGCGC
switch fluorescence ratio: 0.984 ± 0.016

AAGTGGGGGT
switch fluorescence ratio: 1 ± 0.039

AAGTGGGGTC
switch fluorescence ratio: 0.948 ± 0.037

AAGTGGTGTC
switch fluorescence ratio: 0.99 ± 0.13

AAGTGGTGTT
switch fluorescence ratio: 0.984 ± 0.028

AAGTGTAAGG
switch fluorescence ratio: 1.018 ± 0.0039

AAGTGTCGGG
switch fluorescence ratio: 0.994 ± 0.025

AAGTTACCTG
switch fluorescence ratio: 1.087 ± 0.0019

AAGTTATGGC
switch fluorescence ratio: 0.9598 ± 0.0046

AAGTTCACGG
switch fluorescence ratio: 1.06 ± 0.025

AAGTTCATCT
switch fluorescence ratio: 1 ± 0.07

AAGTTCGCCA
switch fluorescence ratio: 0.994 ± 0.01

AAGTTCGTAA
switch fluorescence ratio: 1.03 ± 0.0079

AAGTTGACGG
switch fluorescence ratio: 0.985 ± 0.011

AAGTTGATTA
switch fluorescence ratio: 1.006 ± 0.004

AAGTTGATTG
switch fluorescence ratio: 1.023 ± 0.0031

AAGTTGCACC
switch fluorescence ratio: 1 ± 0.067

AAGTTGGTGG
switch fluorescence ratio: 0.987 ± 0.033

AAGTTGTTTC
switch fluorescence ratio: 0.988 ± 0.013

AAGTTTATTA
switch fluorescence ratio: 0.964 ± 0.017

AAGTTTCTG
switch fluorescence ratio: 0.9892 ± 0.0025

AAGTTTGCGT
switch fluorescence ratio: 0.993 ± 0.022

AAGTTTGTGT
switch fluorescence ratio: 1.02 ± 0.0045

AAGTTTTATC
switch fluorescence ratio: 0.989 ± 0.021

AAGTTTTCGC
switch fluorescence ratio: 0.9789 ± 0.0067

AAGTTTTTCG
switch fluorescence ratio: 1.01 ± 0.014

AATAAAATCG
switch fluorescence ratio: 1.04 ± 0.01

AATAAAGAAT
switch fluorescence ratio: 0.973 ± 0.019

AATAAATAGG
switch fluorescence ratio: 0.9953 ± 0.0053

AATAAATCTA
switch fluorescence ratio: 1.039 ± 0.0016

AATAACGATC
switch fluorescence ratio: 1.037 ± 0.0063

AATAACGGTG
switch fluorescence ratio: 1.07 ± 0.019

AATAAGAAGG
switch fluorescence ratio: 0.999 ± 0.013

AATAAGAGTT
switch fluorescence ratio: 0.995 ± 0.05

AATAAGATTG
switch fluorescence ratio: 0.987 ± 0.022

AATAAGCTCG
switch fluorescence ratio: 0.9792 ± 0.0018

AATAAGGGGC
switch fluorescence ratio: 1.0051 ± 0.00093

AATAATAGGT
switch fluorescence ratio: 1.016 ± 0.007

AATAATCAGG
switch fluorescence ratio: 0.9926 ± 0.0086

AATAATTGGG
switch fluorescence ratio: 0.9967 ± 0.0012

AATACCGTT
switch fluorescence ratio: 0.968 ± 0.055

AATACCTGAA
switch fluorescence ratio: 1.17 ± 0.017

AATACGATGC
switch fluorescence ratio: 1.2 ± 0.091

AATACGGCAC
switch fluorescence ratio: 1.852 ± 0.006

AATACGTATA
switch fluorescence ratio: 1.1 ± 0.068

AATACGTGGA
switch fluorescence ratio: 1.029 ± 0.0036

AATACTGGTT
switch fluorescence ratio: 1.04 ± 0.021

AATAGAAGGA
switch fluorescence ratio: 0.9888 ± 0.0037

AATAGAATTT
switch fluorescence ratio: 0.997 ± 0.035

AATAGCATGT
switch fluorescence ratio: 0.981 ± 0.012

AATAGCTAAA
switch fluorescence ratio: 0.999 ± 0.03

AATAGGAAGG
switch fluorescence ratio: 1.01 ± 0.046

AATAGGAATG
switch fluorescence ratio: 0.996 ± 0.017

AATAGGGCG
switch fluorescence ratio: 1.038 ± 0.0084

AATAGGGTTA
switch fluorescence ratio: 1 ± 0.045

AATAGGGTTC
switch fluorescence ratio: 0.982 ± 0.025

AATAGGTCAT
switch fluorescence ratio: 1.02 ± 0.028

AATAGGTGGG
switch fluorescence ratio: 0.951 ± 0.016

AATAGTACAA
switch fluorescence ratio: 1.04 ± 0.0056

AATAGTACTG
switch fluorescence ratio: 1 ± 0.071

AATAGTAGGG
switch fluorescence ratio: 1.01 ± 0.017

AATAGTCGGC
switch fluorescence ratio: 1 ± 0.042

AATAGTGGTT
switch fluorescence ratio: 1.004 ± 0.0033

AATAGTTCTG
switch fluorescence ratio: 0.951 ± 0.043

AATATAACCT
switch fluorescence ratio: 1.94 ± 0.092

AATATACTTT
switch fluorescence ratio: 1.04 ± 0.051

AATATAGGGT
switch fluorescence ratio: 0.997 ± 0.028

AATATATTGA
switch fluorescence ratio: 0.996 ± 0.02

AATATATTGG
switch fluorescence ratio: 1.028 ± 0.0042

AATATCATAC
switch fluorescence ratio: 1.05 ± 0.021

AATATCCGTA
switch fluorescence ratio: 1.01 ± 0.033

AATATGATTG
switch fluorescence ratio: 1.02 ± 0.019

AATATGGAGG
switch fluorescence ratio: 0.985 ± 0.033

AATATGGGGG
switch fluorescence ratio: 1.01 ± 0.025

AATATGGGTG
switch fluorescence ratio: 1.08 ± 0.01

AATATGTATC
switch fluorescence ratio: 1.003 ± 0.0029

AATATGTCTG
switch fluorescence ratio: 0.937 ± 0.06

AATATGTGGT
switch fluorescence ratio: 0.972 ± 0.015

AATATTGTT
switch fluorescence ratio: 0.996 ± 0.01

AATATTTAGG
switch fluorescence ratio: 0.987 ± 0.035

AATATTTCAT
switch fluorescence ratio: 0.966 ± 0.025

AATATTTCCA
switch fluorescence ratio: 0.974 ± 0.023

AATATTTCGG
switch fluorescence ratio: 0.99 ± 0.0092

AATATTTGG
switch fluorescence ratio: 1.008 ± 0.0091

AATATTTTTT
switch fluorescence ratio: 1.01 ± 0.049

AATCAAAAAG
switch fluorescence ratio: 0.959 ± 0.018

AATCAGACGG
switch fluorescence ratio: 1.02 ± 0.021

AATCAGGCCT
switch fluorescence ratio: 1.05 ± 0.043

AATCATAGTA
switch fluorescence ratio: 1.011 ± 0.0089

AATCATGTGC
switch fluorescence ratio: 1 ± 0.04

AATCCGAGGA
switch fluorescence ratio: 1.05 ± 0.054

AATCCTGTTT
switch fluorescence ratio: 1.01 ± 0.067

AATCCTTGAG
switch fluorescence ratio: 1.02 ± 0.034

AATCGAAAGA
switch fluorescence ratio: 1.02 ± 0.039

AATCGGAATT
switch fluorescence ratio: 1.01 ± 0.03

AATCGGATGG
switch fluorescence ratio: 1.02 ± 0.037

AATCGGCGCT
switch fluorescence ratio: 1.01 ± 0.045

AATCGGGTTT
switch fluorescence ratio: 0.953 ± 0.02

AATCGGTTAG
switch fluorescence ratio: 1 ± 0.03

AATCGGTTGT
switch fluorescence ratio: 0.9815 ± 0.005

AATCGTTAAG
switch fluorescence ratio: 0.97 ± 0.015

AATCGTTGAA
switch fluorescence ratio: 1.01 ± 0.017

AATCTAAGGT
switch fluorescence ratio: 0.983 ± 0.064

AATCTCATAG
switch fluorescence ratio: 1.01 ± 0.012

AATCTCCATT
switch fluorescence ratio: 0.982 ± 0.025

AATCTGCCCA
switch fluorescence ratio: 1.04 ± 0.015

AATCTGCCTG
switch fluorescence ratio: 0.99 ± 0.011

AATCTGGGAG
switch fluorescence ratio: 0.996 ± 0.015

AATCTGTTAT
switch fluorescence ratio: 0.992 ± 0.033

AATCTTGATT
switch fluorescence ratio: 1.2 ± 0.24

AATCTTGGGT
switch fluorescence ratio: 0.972 ± 0.012

AATGAAAGCC
switch fluorescence ratio: 1.26 ± 0.39

AATGAACTAG
switch fluorescence ratio: 1.01 ± 0.053

AATGAAGTCC
switch fluorescence ratio: 1.054 ± 0.0038

AATGAAGTCG
switch fluorescence ratio: 0.997 ± 0.064

AATGACGATG
switch fluorescence ratio: 1.02 ± 0.029

AATGAGGGGA
switch fluorescence ratio: 1 ± 0.013

AATGAGGTCG
switch fluorescence ratio: 1.002 ± 0.0046

AATGATATGA
switch fluorescence ratio: 1.02 ± 0.05

AATGATCCAG
switch fluorescence ratio: 0.983 ± 0.032

AATGATGTGG
switch fluorescence ratio: 0.998 ± 0.021

AATGATTGGG
switch fluorescence ratio: 0.977 ± 0.02

AATGATTGTT
switch fluorescence ratio: 0.992 ± 0.03

AATGCGAGAA
switch fluorescence ratio: 0.973 ± 0.024

AATGCTGGGG
switch fluorescence ratio: 1.05 ± 0.081

AATGGAACGG
switch fluorescence ratio: 1.02 ± 0.032

AATGGAGGAG
switch fluorescence ratio: 1.01 ± 0.023

AATGGATAAC
switch fluorescence ratio: 0.9862 ± 0.0045

AATGGATTTG
switch fluorescence ratio: 0.995 ± 0.013

AATGGATTTT
switch fluorescence ratio: 0.982 ± 0.013

AATGGCCGGC
switch fluorescence ratio: 0.987 ± 0.014

AATGGCGGTA
switch fluorescence ratio: 0.9928 ± 0.0082

AATGGCGTTG
switch fluorescence ratio: 1 ± 0.057

AATGGCTTTG
switch fluorescence ratio: 1.029 ± 0.0062

AATGGGAAGT
switch fluorescence ratio: 0.991 ± 0.019

AATGGGATAG
switch fluorescence ratio: 1.02 ± 0.021

AATGGGATTC
switch fluorescence ratio: 0.9881 ± 0.009
